Laboratory results taken from patent US20020142429.

Experiments:
[1] = molecular target: Dictyostelium myosin (myosin heavy chains), P08799
[2] = molecular target: rabbit reticulocyte eEF-2, P55823

Chain of Dictyostelium myosin (myosin heavy chains), P08799 (P08799 whole entry): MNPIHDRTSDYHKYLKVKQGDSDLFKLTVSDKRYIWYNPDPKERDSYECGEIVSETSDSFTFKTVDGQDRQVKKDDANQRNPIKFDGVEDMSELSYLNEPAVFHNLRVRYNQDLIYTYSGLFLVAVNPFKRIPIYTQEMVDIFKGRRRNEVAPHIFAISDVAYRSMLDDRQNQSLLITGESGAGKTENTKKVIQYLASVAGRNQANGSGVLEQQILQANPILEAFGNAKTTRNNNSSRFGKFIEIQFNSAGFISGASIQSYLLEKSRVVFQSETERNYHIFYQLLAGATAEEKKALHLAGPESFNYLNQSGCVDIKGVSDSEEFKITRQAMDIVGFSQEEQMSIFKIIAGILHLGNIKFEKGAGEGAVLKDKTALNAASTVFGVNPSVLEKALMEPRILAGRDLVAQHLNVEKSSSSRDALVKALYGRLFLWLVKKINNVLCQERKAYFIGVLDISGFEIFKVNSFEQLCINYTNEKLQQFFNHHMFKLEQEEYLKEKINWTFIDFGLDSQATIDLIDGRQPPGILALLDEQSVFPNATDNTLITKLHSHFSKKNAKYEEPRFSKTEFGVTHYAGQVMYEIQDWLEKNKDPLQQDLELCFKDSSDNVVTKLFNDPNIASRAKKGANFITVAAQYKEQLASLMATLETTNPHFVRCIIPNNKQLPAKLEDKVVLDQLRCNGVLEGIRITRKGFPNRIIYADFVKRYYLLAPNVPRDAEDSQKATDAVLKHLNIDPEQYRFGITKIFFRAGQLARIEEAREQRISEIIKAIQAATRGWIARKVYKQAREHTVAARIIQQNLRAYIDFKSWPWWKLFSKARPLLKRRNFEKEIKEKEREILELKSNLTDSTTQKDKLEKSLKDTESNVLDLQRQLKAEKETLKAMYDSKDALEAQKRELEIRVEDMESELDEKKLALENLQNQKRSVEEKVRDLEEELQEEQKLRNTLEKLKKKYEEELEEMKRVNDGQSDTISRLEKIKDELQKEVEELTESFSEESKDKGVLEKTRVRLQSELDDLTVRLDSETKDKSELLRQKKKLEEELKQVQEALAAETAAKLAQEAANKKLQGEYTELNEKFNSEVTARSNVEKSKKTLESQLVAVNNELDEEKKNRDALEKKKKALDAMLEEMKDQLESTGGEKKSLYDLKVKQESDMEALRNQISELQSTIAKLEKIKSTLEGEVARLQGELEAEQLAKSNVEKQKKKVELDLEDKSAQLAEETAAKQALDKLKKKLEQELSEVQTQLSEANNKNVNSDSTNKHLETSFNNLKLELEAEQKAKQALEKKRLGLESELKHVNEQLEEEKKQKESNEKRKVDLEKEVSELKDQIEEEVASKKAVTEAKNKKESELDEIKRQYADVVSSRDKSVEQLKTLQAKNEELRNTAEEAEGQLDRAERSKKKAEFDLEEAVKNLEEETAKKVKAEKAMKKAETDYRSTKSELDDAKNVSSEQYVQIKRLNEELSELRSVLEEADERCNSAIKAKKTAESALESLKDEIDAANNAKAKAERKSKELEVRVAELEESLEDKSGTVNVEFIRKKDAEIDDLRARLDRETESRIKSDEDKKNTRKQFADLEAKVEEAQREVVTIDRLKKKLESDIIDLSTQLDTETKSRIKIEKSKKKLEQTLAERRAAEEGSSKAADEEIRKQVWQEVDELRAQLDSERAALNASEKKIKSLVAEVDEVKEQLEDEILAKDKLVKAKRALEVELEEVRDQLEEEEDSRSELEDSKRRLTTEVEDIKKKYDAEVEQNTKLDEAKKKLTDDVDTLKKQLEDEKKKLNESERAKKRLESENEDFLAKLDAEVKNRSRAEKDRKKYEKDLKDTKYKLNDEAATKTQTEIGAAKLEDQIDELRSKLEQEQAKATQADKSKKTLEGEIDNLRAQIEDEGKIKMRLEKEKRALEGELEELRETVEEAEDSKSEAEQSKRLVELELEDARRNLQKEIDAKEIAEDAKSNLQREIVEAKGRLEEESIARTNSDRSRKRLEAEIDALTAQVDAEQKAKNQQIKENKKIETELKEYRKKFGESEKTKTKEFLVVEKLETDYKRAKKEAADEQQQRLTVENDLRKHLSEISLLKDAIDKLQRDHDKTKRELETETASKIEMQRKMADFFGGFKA

B1: rabbit reticulocyte eEF-2 kinase (protein)
chain: ADEDLIFRLEGLGGHQSSQTGHDGDSDADSDEEEGYFICPITDDPQSNQNVNSKINNYYSNLTKSERYGSSGSPASSFHFKEAWKHAIEKAKHMPDPWAEFHLEDIATECATRHRYNAVTGEWLQDEVLIKMASQPFGRGAMRECFRTKKLSNFLHAQQWKGASNYVAKRYIESVDRDVYFEDVRLQMEAKLWGEEYNRHKPPKQVDIMQMCIIELTERPGKPLFHLEHYIEGKYIKYNSNSGFVRDDNIRLTPQAFSHFTFERSGHQLIVVDIQGVGDLYTDPQIHTETGTDFGDGNLGVRGMALFFYSHACNRICKSMGLAPFDLSPREQDAVNQNTKLLQSAKTILRGTEEKCGSPRVRTLSGSRPPLLLRLSENSGDENMSDVTFDSLPSSPSSATPHSQKLDHLHWPVFSDLDNMAAREQDHLDNQRDSENSGDSGYPSEKRSELDDPEPREHGHSNGNRRCESDEDSLGSSGRVCVEKWNLLNPSRLHLPRASAVALEVQRLNALDLERKIGKSVLGKVHLAMVRYHEGGRFCDRDEEWDRESAVFHLEHAADLGELEAIVGLGLMYSQLPHHILADVSLKDTKENKTKGFDYLLKAAEAGDRQSMILVARAFDTGQNLSPERSRDWQEALHWYNSALEMTDCDEGGEYDGVQDEPRYTLLAREAEMLFTGGCGLDKDPQRSGDLYTQAAEAAMEAMKGRLANQYYQKAEEAWAQMEE
For B1, the “phosphorylation assay (substrate specificity), 10 min” value [1] was “rabbit eEF-2 kinase cannot use myosin heavy chains as a substrate” and the “phosphorylation assay (substrate specificity), 10 min” value [2] was “each of these kinases is specific for their respective substrates”.
